From patent US20070086956A1, “Method for accelerating the rate of mucociliary clearance” (BAYER AKTIENGESELLSCHAFT, priority 1998, published 2007) come the findings set out here.

This experiment has as its system guinea pig trachea. Description: Tracheal potential difference in guinea pigs pretreated with LPS. In kind it is in vivo. Particulars: 50 ug/mL topical instillation; guinea pigs pre-exposed to LPS; FIG. 25(b). The procedure: Polymorphonuclear (PMN) leukocyte (neutrophil) dominated airway inflammation is often a feature of CF lung disease. In the guinea pig, exposure to an aerosol of E. coli lipopolysaccharide (LPS) induces a marked PMN influx in the bronchoalveolar Iavage fluid 24 hours post challenge. The aim of this study was to investigate the effect of Bikunin (1-170) described in Example 17 on tracheal potential difference in guinea pigs pre-exposed to an aerosol of LPS. Agents were delivered into the cephalad trachea by topical instillation. TPD was monitored for 60 minutes, 23 hours after exposure to LPS.
Bikunin (1-170) was formulated in Hank's Balanced salt solution (HBSS). Amiloride was obtained from Sigma Chemicals and formulated in HBSS. Vehicle control was HBSS. Hypnorm (Fentanyl citrate 0.315 mg/mL and Fluanisone 10 mg/mL) was obtained from Janssen Animal Health and Hypnovel (Midazolam 5 mg.mL) was obtained from Roche. […]
23.4 hours following LPS treatment, guinea pigs were anaesthetised with Hypnorm and Hypnovel and immobilised in a supine position. […] Rectal temperature was monitored with a thermistor probe.
20 minutes following induction of anaesthesia, Bikunin (50 ug/mL) or amiloride (100 uM) was topically instilled into the cephalad trachea. The tracheal agar electrode was then inserted into the cephalad trachea and tracheal potential difference was measured for 60 minutes. […]

B1: CHO Bikunin (1-170): Glycosylated placental bikunin (1-170), SEQ ID NO: 52, expressed in Chinese hamster ovary cells (Example 17) (protein, listed as Homo sapiens)
chain: ADRERSIHDFCLVSKVVGRCRASMPRWWYNVTDGSCQLFVYGGCDGNSNNYLTKEECLKKCATVTENATGDLATSRNAADSSVPSAPRRQDSEDHSSDMFNYEEYCTANAVTGPCRASFPRWYFDVERNSCNNFIYGGCRGNKNSYRSEEACMLRCFRQQENPPLPLGSK
modifications: glycosylated, CHO-expressed
On to B1, for which the tracheal potential difference result was “significantly inhibited potential difference”.
